Results from patent US20250049953A1, “TREATMENT AND METHOD FOR INHIBITING LATE NA CURRENT” (THE TRUSTEES OF COLUMBIA UNIVERSITY IN THE CITY OF NEW YORK, priority 2022, published 2025).

What was measured:
[1] = test system: HEK293 cells; assay type: cell-based; details: up to 10 μM FixR-cpp, 2 hours
Method: The peptide encoding FixR-cpp was chemically synthesized by Genscript (98% purity) to contain the cell permeating viral TAT sequence in the amino-terminus: […] (SEQ ID NO. 2). The amino terminus of the peptide contained a FITC fluorophore to visualize cell uptake. The peptide was resuspended in DMSO. Flow cytometric assays were performed to quantify FixR cellular uptake in both HEK293 cells and freshly dissociated aMVM. HEK293 cells were cultured in 12 well plates and incubated with different concentrations of FixR-cpp for 2 hours and stained for cell death detection using LIVE/DEAD™ Fixable Far Red Dead Cell Stain Kit (ThermoFisher Scientific, L10120). Similarly, non-TG and IQ/AA^tg freshly dissociated aMVM were incubated with various concentrations of FixR-cpp for 2 hours in Tyrode's solution (138 mM NaCl, 4 mM KCl, 1 mM MgCl2, 10 mM HEPES (pH 7.4 using NaOH), 0.2 mM NaHPO4 5 mM D-glucose, 1 mM CaCl2). For cellular uptake measurements, we utilized an LSR II (BD Biosciences) flow cytometer equipped with 405 nm, 488 nm, and 633 nm lasers for excitation and 18 different emission channels. Forward and side scatter signals were detected and used to gate for single and healthy cells. […] Histograms from the Fluorescein 5(6)-isothiocyanate (FITC) and Allophycocyanin (APC) channels for the single-cell population were obtained and analyzed using FlowJo (version X, FlowJo LLC).

[2] = target: T1, NaV1.5 E1784K (Homo sapiens, UniProt Q14524, E1784K); test: Multichannel recordings of late Na current, NaV1.5 E1784K; assay type: cell-based; details: co-expression
T1 construct: expressed in transfected cells; host or cells: HEK293 (ATCC CRL1573)
Excerpt: The human NaV1.5 channel corresponds to clone M77235.1 (GenBank) and is subcloned into pGW 1 vector with HindIII and SaII. To facilitate construction of channelopathic mutations in the channel carboxy-terminus, we introduced silent mutations into NaV1.5 to introduce an NruI cutting site near the channel carboxy-terminus (5329-gtggccacg-5337 into 5329-gtCgcGacg-5337). Subsequently, we used overlap-extension PCR and ligated the PCR product into NaV1.5/pGW1 using NruI and XbaI restriction sites (mutations: E1784K, S1904L, IQ/AA, and Q1909R). For generating the ΔKPQ and IFM/IQM mutations, we used overlap-extension PCR and ligated in NaV1.5/pGW1 following restriction digest using KpnI and XbaI site. For generation of NaV1.5 truncations, we PCR amplified relevant segments using a forward primer upstream of the KpnI site and a reverse primer that truncated at the appropriate location (Δ1810 and Δ1885) and included an XbaI site and ligated into NaV1.5/pW1 vector. For LILA/WICW mutations, we used overlap extension and used restriction site AgeI and NheI for subsequent ligation. All segments subjected to PCR amplification were verified by sequencing. For generating human FHF2 splice-variants, we synthesized gene fragments and ligated into pcDNA3 using BamHI/EcoRI restriction sites. Human FHF1A and FHF1B were subcloned into ECFP-N3 vector, FHF2 splice variants and FHF3 were subcloned into pcDNA3. […]

Substance | cell death [1] | change in INa,L [2]
FixR-cpp: FixR fused to HIV-1 TAT transduction domain, YGRKKRRQRRRAAAIASSLIRQKRQARESNSERVSASKRRSSPSKG (SEQ ID NO: 2) | Minimal cell death | –
FixR: minimal 39-amino-acid FHF1A amino-terminal effector domain, MAAAIASSLIRQKRQARESNSDRVSASKRRSSPSKDGRS (SEQ ID NO: 4), expressed as peptide | – | inhibits INa,L
